Data: PMC6326806

Columns and labels:
Plk1 [1] = molecular target: Plk1 (UniProt P53350); experiment: GST-Plk1 pull-down from cell lysate; conditions: reference: wild type; sites T476
Plk1 [2] = molecular target: Plk1 (UniProt P53350); experiment: GFP-trap co-IP of Myc-Plk1; conditions: reference: GFP-B-Myb wild type; sites T476

| Substance | binding against the reference (Plk1 [1]) | binding against the reference (Plk1 [2]) |
| --- | --- | --- |
| B-Myb (from UniProt P10244) T476A | lost | – |
| B-Myb (from UniProt P10244) GFP-B-Myb T476A | – | lost |
